Experimental data published in the supplement of paper PMC12764529.
± gives the half width of the 95% confidence interval.

Columns and labels:
[1] = folding stability dG unfold from chymotrypsin proteolysis; higher = more stable
How it was run: (§1)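 Sequencing followed digestion of designed mini-proteins with trypsin and chymotrypsin, each at 11 concentrations in threefold dilutions together with a no-protease condition. The mini-proteins were under 80 residues, had no cysteine, sat in a PA-tagged cDNA display construct, and were kept only if AlphaFold2 dimer inter-PAE was above 15. From the counts, Bayesian fitting gave K50, and unfolding free energy was derived against a sequence-predicted unfolded-state K50 and a shared folded-state K50, per protease or combined.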

[2] = folding stability dG unfold (combined trypsin and chymotrypsin); higher = more stable
How it was run: as §1

[3] = folding stability dG unfold from trypsin proteolysis; higher = more stable
How it was run: as §1

Sequence | folding stability dG unfold [1] [kcal/mol] | folding stability dG unfold [2] [kcal/mol] | folding stability dG unfold [3] [kcal/mol]
SAGGSAGGSVKPGEKVLVRVRNPATGRWEEVVATVNEDGSITIYNKETGKTETIPLKDIELVPSAGGSAGGS [r12_726_TrROS_Hall] | 4.25 ± 0.055 | 4.37 ± 0.088 | 4.6 ± 0.17
SAGGSAGGSWMLMVKIEFPENGQERHFMLPPGMTIEDIADRLREDGAPIKDIEVQWMPLPPGDSAGGSAGGS [r12_955_TrROS] | 1.62 ± 0.086 | 1.62 ± 0.072 | 1.47 ± 0.033
SAGGSAGGSWYLRIEYMNGKEREFPFPPDMPGQPAEEIADKLGSPNMKVEFYDPEGEPREFDISAGGSAGGS [r12_411_TrROS] | 0.754 ± 0.13 | 0.726 ± 0.18 | 0.589 ± 0.071
SAGGSAGGTAEELARKLEEALREAGYEVEKIEVVRVERKGDKVTIEVRVTLPDGRKLELRIELDSAGGSAGG [r6_839_TrROS_Hall] | 3.22 ± 0.13 | 3.67 ± 0.21 | 4.09 ± 0.3
SAGGSAGGTIMIQFPDMDSPEEAIDQAEFFINEFMKQGNPGKPIKVTIQDPKNGQQQTFEIPLESAGGSAGG [r6_238_TrROS] | 0.244 ± 0.16 | -0.114 ± 0.16 | -0.935 ± 0.49
SAGGSAGGTITLPGVTVEITEENGTLTIRVTSPDGRTLTRTITLPAGETVTVTDANGKTVTVRLSAGGSAGG [r6_806_TrROS_Hall] | 3.34 ± 0.059 | 3.18 ± 0.11 | 2.8 ± 0.073
SAGGSAGGTITVTPLPDGRELITYPEKNALVEIVKDPATGKETVIVYEDGEPKVISLEELKKKLSAGGSAGG [r6_534_JUSTAS] | 0.383 ± 0.021 | 0.417 ± 0.079 | 0.359 ± 0.059
SAGGSAGGTIWFDNPEDVERVVKDLRQEFPPDNPIDIMIWGPGSMYVIEITPDKIKDVEVYPMDSAGGSAGG [r6_289_TrROS] | 0.683 ± 0.14 | 0.598 ± 0.27 | 0.318 ± 0.082
SAGGSAGGTLSIEELKELFPEAEKIEAEEVELTFTLPNGKKVKAKYRLVTVYRDNKPILLLVPGSAGGSAGG [r6_138_TrMRF] | 2.97 ± 0.056 | 2.97 ± 0.12 | 2.82 ± 0.17
SAGGSAGGTLTIDELKELFPDVTEVKIEEKEETYTDKNGKKRKVKTKVIKVKVNGKEVTIEVKESAGGSAGG [r6_138_TrROS_Hall] | 0.534 ± 0.13 | 1.25 ± 0.19 | 1.96 ± 0.05
SAGGSAGGTPKLAETRKNGKKVLAPVEVDPETGVITVTPPDGTTEVVPASRPPPFIEEDPSLGSSAGGSAGG [r6_174_JUSTAS] | 1.44 ± 0.037 | 1.03 ± 0.087 | -0.252 ± 0.042
SAGGSAGGVEPVVVGRVPVVVRDPATGELREAEILRALPDGTLFIRFPNGERAEIRGAPVLSLASAGGSAGG [r6_433_TrMRF] | 1.54 ± 0.096 | 1.35 ± 0.086 | 1.07 ± 0.035
SAGGSAGGWYVRITTNNGNQISIHLEELGLPEESFKEMTEEDLAEYLSKLFPGRPIKIEPVPLPSAGGSAGG [r6_165_TrROS] | 3.35 ± 0.11 | 3.14 ± 0.14 | 3.07 ± 0.14
SAGGSAGGYIVKIKMPKFPHVFIFPPEMPPKQFADEIRRRFGNPDAPITDITIQPVTPEELKKLSAGGSAGG [r6_122_TrROS] | 1.4 ± 0.12 | 1.16 ± 0.12 | 0.787 ± 0.059
SAGGSAGILEKTIKLAEELGLPVVEAKVVKKKNKVYVFFKSKKSKKYVIEIDGDKITIKPYSVVKKSAGGSA [r15_901_TrMRF] | 2.99 ± 0.05 | 2.68 ± 0.059 | 1.954 ± 0.014
SAGGSAGKITIPARVKITLTPPNGPTVTFDAIITRVEDNSIELILGNVPITIPPNAKNVTITSVEGSAGGSA [r15_510_TrMRF] | 1.53 ± 0.022 | 1.49 ± 0.052 | 1.45 ± 0.018
SAGGSAGKTKIEIRPLPDGSYLVLVTSPDGSKSEFIADGPDIPLPELLKKLNLPPDIEVVNAELPESAGGSA [r15_167_TrMRF] | 3.05 ± 0.056 | 2.98 ± 0.13 | 2.98 ± 0.12
SAGGSAGLAEAILREAASAGIPLENVRIVDVRAFVTPDAVVFRARIEYRLPNSTSLAYADAVVPAPSAGGSA [r15_863_TrMRF] | 1.82 ± 0.086 | 1.69 ± 0.073 | 1.42 ± 0.026

Sequence | folding stability dG unfold [1] [kcal/mol] | folding stability dG unfold [2] [kcal/mol] | folding stability dG unfold [3] [kcal/mol]
SAGGSAGMNRVSLKPLPDGTYEVTITYPDGSTSTYTVPGPAVSLEEILKRLNIPESIEVEDVEPLGSAGGSA [r15_167_JUSTAS] | 3.87 ± 0.059 | 3.52 ± 0.075 | 2.64 ± 0.089
SAGGSAGMPDIIYKVKITVTSSGKVTTLDITLPSEEEVKKAIEELKKKGYTNIKPEIEKFLKSELGSAGGSA [r15_1015_JUSTAS] | 2.13 ± 0.066 | 2 ± 0.19 | 1.15 ± 0.12
SAGGSAGMPSPVLLDVTIANPDGTTSTVTAPYASPEVAEAYVRENYPDAEVTYDPATGRVSVNVPSSAGGSA [r15_313_JUSTAS] | 2.09 ± 0.033 | 2.2 ± 0.054 | 2.31 ± 0.092
SAGGSAGMTVTKTFTLPGYKVELTTHPGLPPDAPVTIEVTLTPPDGSVVKSTRTVLARPDDPSVLLSAGGSA [r15_10_JUSTAS] | 2.73 ± 0.12 | 2.46 ± 0.16 | 2.15 ± 0.13
SAGGSAGMVSLTTTTTPVETRTLPDGTVVTLEKTELPDDTVVLTTTTTDPATGEVTTETTTVSLAGSAGGSA [r15_401_JUSTAS] | 1.11 ± 0.022 | 0.884 ± 0.11 | 0.409 ± 0.026
SAGGSAGNPVPKVTVTDVTFGIPESDPSLLEKKAEEVAAELNKPELTVTITEYDPATYTFTITVVSSAGGSA [r15_563_JUSTAS] | 1.89 ± 0.07 | 1.48 ± 0.059 | 0.648 ± 0.021
SAGGSAGPTTTPTTYARITATLRKGGETITVELEVPTSVVEEAVEALAKELGVEIEKVEVTLTEERSAGGSA [r15_535_JUSTAS] | 2.4 ± 0.042 | 2.3 ± 0.08 | 2.08 ± 0.027
SAGGSAGQKIQIERVQWNPEEGYFFIRIRYPGNGREIEHHIRLDNIEIELPPGAKITDIEIYPLPNSAGGSA [r15_959_TrROS] | 1.83 ± 0.12 | 1.96 ± 0.13 | 1.8 ± 0.079
SAGGSAGSLSPIGEHPYTLPDGSRITVPIYRDPATGEIVVEVETETEEEDISEKAEEYAEKVREALSAGGSA [r15_529_JUSTAS] | -0.571 ± 0.45 | -0.25 ± 0.14 | -0.0147 ± 0.048
SAGGSAGSMPVEVTVTITVKDKNGTVLGTFPIKITVTSEEELEAKIKELKEKLKKEGYIVEKVDVVSAGGSA [r15_1054_JUSTAS] | 2.65 ± 0.041 | 3.24 ± 0.091 | 3.85 ± 0.17
SAGGSAGTITIMFPIPPGKEVKMKFLFYIPDGYIFNVDITQTGPGYITITIPIYRLPENAKDPDLISAGGSA [r15_909_TrROS] | 4.78 ± 0.18 | 4.43 ± 0.26 | 3.2 ± 0.3
SAGGSAGTVKFKQPFPFYDPGNGWPFPIDIKITVEYKPDPNGEPKWQITKIEIKMPEGSPALKDLISAGGSA [r15_258_TrROS] | 2.24 ± 0.048 | 2 ± 0.14 | 1.82 ± 0.11
SAGGSAGVKSSSPNGLTLEFPFESEEEVEEAVKEIKKAFPENYEVKIEIEKSEKILKVKIIVKKKDSAGGSA [r15_80_TrMRF] | 2.14 ± 0.061 | 1.9 ± 0.091 | 1.08 ± 0.04
SAGGSAGVVKGRIEITFVVPPDAPGVEELARETVKRIGFDAENVEILKVERLPDGSYRVTLLLDAPSAGGSA [r15_654_TrMRF] | 4.47 ± 0.052 | 4.21 ± 0.071 | 3.17 ± 0.059
SAGGSAGWVTFDILFPGKTIEEAKEFIEQIPPEFMNNIKKIEIDEIHPVGGWYHVTLTIEVPPGMKSAGGSA [r15_244_TrROS] | 2.06 ± 0.049 | 1.71 ± 0.16 | 0.743 ± 0.14
SAGGSAIEPGQKVLVLFPEDGGLATLTFDPTTRTVEIEVGGERRTYPVDSLQDVLDELGAEVLSTDSAGGSA [r15_500_TrMRF] | 1.74 ± 0.037 | 1.82 ± 0.072 | 2.12 ± 0.037
SAGGSAIPFPPGAKVKKIEMHEKKDDNKPRYVMIIKWEGGNIMVFQMDPGDGNFKPIGWVPLDDLKSAGGSA [r15_777_TrROS] | 2.33 ± 0.058 | 1.95 ± 0.12 | 0.508 ± 0.07
SAGGSAIPPDNVKEEREITDPDDDTKIKVWRYPNDGRYWVQVYNKKGEPKWKQLGPMPANQAEDLISAGGSA [r15_295_TrROS] | -0.31 ± 0.38 | -0.057 ± 0.23 | 0.0985 ± 0.35
